From patent publication US20110130457A1, “Wax-Based Emulsion for the Treatment of Dry Eye Conditions” (UNIVERSITY OF LOUISVILLE RESEARCH FOUNDATION, INC., priority 2008, published 2011)
Blank lines part the entries; values can stand above or below the compound they belong to.

Legend:
β-lactoglobulin = molecular target: T1, β-lactoglobulin (Bos taurus, UniProt P02754); test: Wax-lactoglobulin binding by intrinsic tryptophan fluorescence intensity and anisotropy
T1 sequence (P02754 17-178): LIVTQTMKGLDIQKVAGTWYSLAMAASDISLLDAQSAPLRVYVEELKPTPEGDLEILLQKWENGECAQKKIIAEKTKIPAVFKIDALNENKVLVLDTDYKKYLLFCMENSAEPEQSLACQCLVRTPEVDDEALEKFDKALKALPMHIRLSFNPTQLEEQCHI
Source text: Changes in protein concentration alone are unlikely to affect the rate of evaporation of tears. […] (See Pandit J. C., Nagyova B., Bron A. J., et al, Physical properties of stimulated and unstimulated tears. Exp Eye Res. 1999; 68:247-253.) In this embodiment of the present invention, wax interacted with lactoglobulin. Wax-lactoglobulin binding was quantified by measuring changes in the intrinsic fluorescence intensity of tryptophan. Tryptophan fluorescence is sensitive to local changes in electrostatic fields. Therefore, variations in the local environment/polarity of tryptophan leads to changes in its fluorescence properties as described by Vivian and Callis. Vivian J. T., Callis P. R., Mechanisms of tryptophan fluorescence shifts in proteins, Biophys. J. 2001; 80:2093-2109.) Substrate binding and protein structural changes are commonly measured by observing changes in tryptophan fluorescence intensity, wavelength maximum, band shape, anisotropy, fluorescence lifetimes, and energy transfer.
A wax emulsion that is stable for at least 4 weeks was prepared as described previously by the inventors. […] A quantified amount of wax (0.156 to 1.25 μL/mL) was mixed with 1 mg/mL lactoglobulin in phosphate buffered saline and equilibrated for 12 hours at 34° C. under an atmosphere of argon. […] Emission spectra were measured from 300 to 400 nm with an excitation wavelength of 270 nm. […]

[1] = Evaporation rates measured in vitro (gravimetric); assay type: physicochemical; details: for Influence on the rate of evaporation: concentrations of 50 to 100 mg/mL, at 25 or 34° C.
Procedure: Samples (0.750 mL) for evaporation rate measurements were placed into a plastic container 0.8 cm deep and 1.500 cm inside diameter. Temperature and relative humidity were recorded at the start and end of each experiment. Samples were weighed every minute for 10 minutes using a Mettler-Toledo AT261 analytical balance (Columbus, Ohio). The balance was calibrated and certified by a Mettler technician prior to use. The weights of as many as 7 samples were measured sequentially, i.e., after measuring the weights of sample 1 for ten minutes, the weights of sample 2 were measured for ten minutes, followed by the next sample. The weights of four 10 minute weighing sequences were plotted versus time and the rate of evaporation was calculated from the slope of the data in the plots that were fitted using least squares linear regression analysis. The rate of evaporation at 34° C. was measured using four, 3-minute weighing sequences instead of ten.
The rate of evaporation with 20 standard cubic feet per minute (SCFM) of dry air flowing over the sample at 24° C. was measured. Air was completely dried using a Keaser desiccant dry, model KLDW-10S (Columbus, Ohio) attached to a Purimetrics Compressor, model 750-2 (Edina, Minn.) and a 80 gallon air receiver tank. Complete removal of water vapor from the air was confirmed using an infrared spectrometer. The sample was placed under a flow of dry air for 1 minute and removed from the dry air for two minutes and weighed in a Mettler-Toledo analytical balance. This cycle was repeated ten times. The rate of evaporation in dry air was calculated from the total rate of evaporation minus the contribution of the evaporation in the room air. Evaporation rate was expressed as μm/min, the rate of thickness lost at the surface per minute. Changes in the thickness of the tear film (˜5 μm) due to evaporation can be estimated readily by expressing the evaporation rate in μm/min.

[2] = 50 mg/mL, 24.8° C., relative humidity 40.6%
[3] = 100 mg/mL, 24.8° C., relative humidity 40.6%

- Tryptophan anisotropy of lactoglobulin (β-lactoglobulin; with the addition of wax, n=6, 0.138±0.009 with no wax, p=0.04, SEM): 0.115±0.004
Compound: CCCCCCCC/C=C\CCCCCCCC(=O)OCCCCCCCCCCCCCCCC [palmityloleate wax, palmityloleate]
- Fluorescence intensity of the tryptophan residues in lactoglobulin (β-lactoglobulin; as little as 20 nmoles (~0.1 μg) wax added to 1 mg β-lactoglobulin in 1 ml phosphate buffered saline): caused a decrease in the fluorescence intensity

Compound: Lysozyme
- Rate of Evaporation [1, 2]: 3.0 μm/min
- Rate of Evaporation [1, 3]: 3.0 μm/min
- Influence on the rate of evaporation [1]: did not significantly influence the rate of evaporation

Compound: Mucin
- Rate of Evaporation [1, 2]: 2.9 μm/min
- Rate of Evaporation [1, 3]: 3.0 μm/min
- Influence on the rate of evaporation [1]: did not significantly influence the rate of evaporation

Compound: β-Lactoglobulin: model tear protein, used as a model for lipocalin
- Rate of Evaporation [1, 2]: 3.08 μm/min
- Rate of Evaporation [1, 3]: 3.12 μm/min
- Rate of Evaporation ([1]; 100 mg/mL, 34° C.): 9.1 μm/min
- Influence on the rate of evaporation [1]: did not significantly influence the rate of evaporation
